Here are results for 16 sequences from a protein production outcome set (Wang et al. 2014).

A short description of the data set: label from the status in PepcDB records.
“MKLILAPMEGLTDPIMRDVLTHVGSFDWCVTEFIRVTDSVLPDHVYYTYCPELKNNGKTAAGTPVHVQFLGNNPDMLAANAEKVVALGAPAIDLNFGCPAKTVNRHRGGSILLDEPDVVHLLVKAVRDAVPAHIPVSAKMRLGYLDENHTMDNAYAIQEAGANWLTVHARTKADGYTPPAYWEKIQPIKDALSINVIANGEIWTNQDAKACQQQSGCEDLMIGRGAVTTPDLTLCIRQNVDEALMNWAALIELQQRFLNGEYKTEIGMIGRYKQWLGMMTKAYPEAKQLWDEIKRIKNLDEILLKLGRSS”: the protein production entry is “failed”. The same measure for “MKLKSLLLRYYPPGIMLEYEKHGELKTKSIDLLDLGPSTDVSALVEEIQKAEPLLTASRTEQVKLLIQRLQEKLGQNSNHTFYLFKVLKAHILPLTNVALNKSGSCFITGSYDRTCKLWDSASGEELNTLEGHRNVVYAIAFNNPYGDKIATGSFDKTCKLWSVETGKCYHTFRGHTAEIVCLSFNPQSTLVATGSMDTTAKLWDIQNGEEVYTLRGHSAEIISLSFNTSGDRIITGSFDHTVVVWDADTGRKVNILIGHCAEISSASFNWDCSLILTGSMDKTCKLWDATNGKCVATLTGHDDEILDSCFDYTGKLIATASADDGVSLCRPGRSAVARSWLTATCASQVQAILLPQPPELCHVLGNHV”: “failed”; for “MKLKTFLIVGCLGGLFTLSSCTAPTNVKDYSAYVNPFIGTGGHGHTFPGAVVPHGMIQPSPDTRIDGWDACSGYYYADSTINGFSHTHVSGTGCCDYGDVLLMPTVGKQQYRTTDPQSQRLAYASSFSHKNEIAEPGYYSVFLDTYQVKAEISSTKRGAIHRYTFPENTESGFIIDLDYSLQRQTNSEMEIEVISDTEICGHKKTTYWAFDQYINFYAKFSKPFSYTLVTDSITMDNGKRLPVCKALLHFNTSKDEQVLVKVGVSAVDIAGARKNVESEIPGWDFEKVRKDARTAWNEYLSKIDITTSDKEDKAIFYTALYHTGISPNLFTDADGRYLGMDLEVHQGDTLNPIYTVFSLWDTFRALHPLMTIIDPDLNNHFINSLIKKHQEGGIYPMWDLASNYTGTMIGYHAVPVIVDAYMKGYRNFDTKEAYKACLRAAEYDTTGIKCPDLVLPHLMPKAKYYKNAIGYIPCDRENESVAKALEYAYDDWCISIFAEAMSDFESKAKYERFAKAYEFYFDKSIRFMRGLDSKGEWRTPFNPRASTHRSDDYCEGTAWQWTWFVPHDVEGLVNLMGGEDAFVQKLDSLFSADSSLEGETTSSDISGLIGQYAHGNEPSHHVIHLYNYVNHPWRTQELVDSVYRSQYANSIEGLSGNEDCGQMSAWYILNSMGFYQVCPGKPVYSIGRPAFDKAVINLPEGKTFSIVVKNNGKKNKYIESVLLNGKALNIPFFNHQDIANGGTMEIKMTDHPTKWGVLSPALSSKEEE”: “failed”; for “MKLKYCHYAYDDEGYVIHMLTSNERTFFTNAYIIETKNSIVVVDTLMVNSDAILLRQYMDNINKPLIAVIITHGHPDHYNGTEIITGFKEVPIISTKGIRDCIQDTVDSKEVKWKPYFGQDWPEHKILPNQLVIDSEVVNLDGLDYSFRDLGAAESSSDLFFTLGEKRSVIFVGDVVFNNMHGFMNDGNSAQWLKVLQKLLTEIADVKLLFTGHGDPGDTHQLVQRQIDYISHYRSNLLAIIRGNQLEHHHHHH”: “failed”. For “MKLLIKKITYIIFILCSYCSYGEAKIQLPSILGNGMVLQQKSEVRLWGKATPNKKVTIYTSWNAQQQEVNSNKKGDWIVTVTTPEAGGPYTIRISDGEELLLDDVLIGEVWLCSGQSNMEMPVKGFRGQPAAESQNTIVNVNPNRSLRLFTVQRAYSSILEEDVTGQWEKNTPKSVSTFSAVAYYYGDQLQKVLGIPVGLIHASWSGSSIEPWISKENLLQFPEVDLTPAENPQLKYANGTPTVLYNAMIKPLENYNIKGMIWYQGESNSARPEQYQRLFAVWAKQNRALFRSKDLPIYYTEIAPVASPVDRPFQRAIFREAQLESMHEVSNTGMAFTNDLGSEKFIHAPKKREIGQRLAYWALAKTYQLEGFEYSGPIHRSYMKNGKIIEILFDHADDGLNPENEPLVGFEIASEDSIFYPANAEIINGTSRVKVWSDKVAQPVYVRYAFRNFLRGNLVNNAGLPAAPFRMDLRKMDFQNPEKLGWARVTTFGKLPEYISVYHSPEWIESTRTNAYIAVVDTKKGGSLDVGGADSGVKTPIEFYQSEKRKPSIVLNGGYFANGRTVSLICKNGKILSDNISVVNRLLEGKKTAYYPTRSVFSLYTDGTYHVDWIYKSAQQTYAYDMPALNSSTRPPLSVPSKGFPKGAKVWTAEMGIGAGPILIKDGTIRNSWVEELLDVASGINPQTCQPRSAVGVTQDGKLILFVCEGREQTPDIPGMTLAQLARLMRSFGCVDALNLDGGGSSCMLINGKETIKPCNKYHHQRPVATVLFAR” the value was “failed”; for “MKLLLTRPEGKNAAMASALDALAIPYLVEPLLSVEAAAVTQAQLDELSRADILIFISTSAVSFATPWLKDQWPKATYYAVGDATADALALQGITAERSPADSQATEGLLTLPSLEQVSGKQIVIVRGKGGREAMADGLRLRGANVSYLEVYQRACPPLDAPASVSRWQSFGIDTIVVTSGEVLENLINLVPKDSFAWLRDCHIIVPSARVETQARKKGLRRVTNAGAANQAAVLDALGM”, “not failed”.

Take “MKLNISAQSLNYTKYDNVIPSRDAILGLFDKVKSYLSYEQISHSSGLNDEPEKDALKKRLRAMERDGQLIFTRRKGYKRVDQSSLVTGKISIHVDGFGFLTYDDNEKDLFLPKHQLSHVFDGDIILVLKGHTQHQGRSNHRFIKIVERKTTHIVGLLKRKGSKLYLLPENSKLTQTIYVTPNELIAKNVGKLVHCKINTYPDYRQPTTVEVNEVLGRPGEAGIEVKLALRRHGINDKWDKDVLDAASAFGSQVEEKDKTSRVDYRDLPFVTIDGDDAKDFDDAVYGYQMDNGQWKLFVAIADVSHYVKPNDHLDLEAQSRATSVYFPGCVVPMLPESLSNGLCSLNPNEDRLVMVCEMTFDDEGNMLDSEFSEGIIHSHARLTYDDANRIIMQSSAKTTYQSNNPKNNIAQYLVNLHRLYLNLSGQRKVRGAIDFDTQELAFKLNNKKKIASIVPVVRNDAHRMIEEFMLCANVATAQFLELNKIPSLYRVHSGPQMKKLTSLRMLLAEKGLTLAGGDKPTSHDYNALLDQVRDLDECDIIRTLLLRSQSQAEYSPKNLGHFGLAYDAYAHFTSPIRRYPDLLIHRAIRAKLREKTTGKLRSLLMKLKPIRQLAGISNSYPYDTKEIEQLSVHCSHQSRQADEVSREVESALKCHYMKPFIGRNFMGSVSGVTHFGVFVELEENRIEGLIPLSSFQNGDFEFDAIKQKISSQTTTFTLGTQVNIIVKEIDSKQRKIIFNFA”: the protein production entry is given as “failed”. On to “MKLQTTIQHEPKDGSGFDRGLREFFEYRDTGVNEATGGMFGAHVIRAIPGKEAKPTWHTHTVGFQLFYVLRGWVEFEYEDIGAVMLEAGGSAFQPPGVRHRELRHSDDLEVLEIVSPAGFATSVVDLEEARKP”, for which the protein production entry is given as “not failed”. As to “MKLRKRRLCAATGVVLGALTALAALPPAAVASPHPGGHPPTARRALPLGPAGLPERRTTTTLQPGVTLTRIVRGNAEDPALHWTVEVSIPGGDTSPDPDAPPTALKDRASADELAAELRRDGFEARVEEVTTPATADYRGGTLGWRVRIGTFDSQTAATAERTRLRAAGYSGSAVYTGWDGAATDRGPWHVDVLTIDPRTFRGTLDASYGPDLENRETTSALAASAAATAAVNAGFFVLDPRAGAPGDPAGVGVYDGRLLSEPVAGRPALVVHDDGRRTEIARLTWQGRIATRAASLPLNGVNRVPGLIRNCGGSAGDTPTSLPLHDVTCTNPDELVAFTPDYGGRTPGGEGMEAVLDAHERVVELRSPRGGTIPRGGSSVQATGERVADLTATARVGERLRVSATLLDDRGRRMSTSPGTDIVNAGPELVRDGRVHVTPATDGMVHPGDPSWYYGWVHKRNPRTVAGVDAAGRTVLVTADGRSTDSLGLSIGESAEVARSLGLRDAVNLDGGGSTTMVAEGAVLNSPSDAAGERPVGDALLILPHRHRTRS”, the protein production result is recorded as “failed”. The same measure for “MKLSDFIKTEDFKKEKHVPVIEAPEKVKKDEKVQIVVTVGKEIPHPNTTEHHIRWIKVFFQPDGDPYVYEVGRYEFNAHGESVQGPNIGAVYTEPTVTTVVKLNRSGTIIALSYCNIHGLWESSQKITVEE”: “not failed”. Turning to “MKLSMQMLKKSSLIPSDLTDTLLLVGSGWDDYSFKTSFTVMHFGPDAKKTELGTTKIGYKDQQHGWTSEKFSTKNISLSDDFFSLGQDVDFYRKLQGGLSADAALAVLQALKDVIADPLRLEDVKNEQVFRESLMRNVSWSVIRDQFKRVLAGKPELTSFHFSYQTNGDEQRAGVDVSFKVTPHSLPSTNVHVLIGRNGVGKTTILNDMVETILSDTTGRPHCGKFLIYDSLGSEPMPTDYFSSVVSVSFSAFDPFLFPADQPDRSKGVAYFYVGMQSPGEGPGKRPPKTTEALTEDFITSLESCFSQESKRQRWVAAIKRLESDSNFEDMDLAHLNELPTDEAIVKAHRIFSRMSSGHSIVLLTLTKLVEAVEEKTLVLMDEPESHLHPPLLSAFTRAISDLLQDRNGVAIIATHSPVVVQEAPGSCVWKLTRLRAEGRADRPERETFGENAGVLTREIFGLEVNKSGYHEVLQEAVNRGGTFESILADYQEQLGFEAQAILRKMVASRRES”, the protein production entry is on record as “failed”.

For “MKLSSEKLPKNPFSLSQYAAKQQKFFQWKKEKPDYYLHANLVDTALQFLKERIRRGDAMAYFLRGQLYFEEGWYEEALAQFEEIQEKDHQAIYQLGVMYYDGLGTIANAEKGVNYMRKILDSSCPQTMHLKFAAAYNLGRAYFEGKGVKRSDEEAERLWLLAADNGNPKASVKAQSILGLFYSMKEPKELEKAFFWHSEACGNGSLESQGALGLMYFYGQGIRQDTDAALHCLREAAERGNVYAQGTLVEYYYKMKFFTKCVSFSKRIADYDEVHDIPMIAHVTDCLPEFIIKGMAMAAFYHGRCLQLGLGIMKDEESAKHYYSKACRLNPTLADELHSLLIHQRI”, the protein production entry is reported as “failed”. “MKLTHSFIKQQARLGLNFFRYLLARMNHDRVNVNAGYLAYITLLSMVPMLTVLLSILSSFALFANAGEVIQDFVITHFVPAAGEVVKTALIEFVANTGKMTAVGGAFLFVAAIMLISNIDKNLNYIWRVQQKRRAVFSFSMYWMILTLGPILVGASIAATSYITSLKILDNEALSGVYNLFLRWLPFVLSYCAFVGLYLLVPNKKVHWQHAMLGALIAAILFELSKKGFAAYITQFPSYQLIYGALAAIPILFVWVYLCWLIVLVGAEVTAALGEREHWSDSQDMLHFAPLPKNEKE”: the protein production entry is “not failed”. On to “MKLVVCSESDTAGQNIKDNLLTFADFEEKDVGEFKLYLSDEFYIAETKERLIYADHIDEKLAKYIDFEEILFASRHSSKDGRKIFTVHVSGNVGTADFGGKPYSLAKPSPQTMKNYVLALRERLDRKPEFEFTMEVTHHGPSEISKPSAFYEIGSTEEEWKDREAAEVVAEAMLDAIRAEKMDWNVAVGVGGTHYAPRQTEIMLTTTFTFGHNFAKYTFEHLTAEFLVKAVKLSEAEYIIIDEKSVNSAVKKIVNEAAEVAGVEVLKSKKVKKDFRLV”, for which the protein production entry was “not failed”. On to “MKLWENGTFYQMTAEGEQVSAVLTKNGQIHAVGEVADLKKQYATEIDETIDLEGKVVFPGFVDAHIHLLWYGQALERLNLNQTTTKKEALALEHHHHHH”, for which the protein production result is “not failed”.

Consider “MKMDTGALTFQQKIYWLVKQIPLGRVATYGQIAALCGWPRHGRYVGYALYRVAPNSDIPWHRVVNAQGKISYAPQRRGTDELQRWRLAAEGIIFTAGDRINLRRYQWQPPATVYQQLIWPEGAATDSAKAKVG”, for which the protein production entry is given as “failed”.
